Assays:
[1] = target: Tomato SlDXS1, truncated version lacking the N-terminal plastid targeting peptide, 6xHis-tagged (Solanum lycopersicum (tomato)); experiment: dynamic light scattering
[2] = target: Tomato SlDXS1, truncated version lacking the N-terminal plastid targeting peptide, 6xHis-tagged (Solanum lycopersicum (tomato)); experiment: cross-linking
[3] = target: the molecule itself; experiment: SDS-PAGE with non-denaturing loading buffer and immunoblot
cross-linking = target: the molecule itself; experiment: cross-linking

Molecule: Tomato SlDXS1, truncated version lacking the N-terminal plastid targeting peptide, 6xHis-tagged (enzyme)
- stoichiometry N [1]: 2
- stoichiometry N [2]: 2

B1: Tomato SlDXS1, full-length protein with C-terminal myc tag (pGWB420-SlDXS1), expressed in N. benthamiana leaves (enzyme)
chain: SLSESGEYYTQRPPTPILDTVNYPIHMKNLSLKELKQLADELRSDTIFNVSKTGGHLGSSLGVVELTVALHYVFNAPQDRILWDVGHQSYPHKILTGRRDKMSTLRQTDGLAGFTKRSESEYDCFGTGHSSTTISAGLGMAVGRDLKGRNNNVIAVIGDGAMTAGQAYEAMNNAGYLDSDMIVILNDNRQVSLPTATLDGPVAPVGALSSALSRLQSNRPLRELREVAKGVTKQIGGPMHELAAKVDEYARGMISGSGSTLFEELGLYYIGPVDGHNIDDLIAILKEVRSTKTTGPVLIHVVTEKGRGYPYAERAADKYHGVAKFDPATGKQFKASAKTQSYTTYFAEALIAEAEADKDIVAIHAAMGGGTGMNLFHRRFPTRCFDVGIAEQHAVTFAAGLACEGIKPFCAIYSSFMQRAYDQVVHDVDLQKLPVRFAMDRAGLVGADGPTHCGAFDVTYMACLPNMVVMAPSDEAELFHMVATAAAIDDRPSCFRYPRGNGIGVELPAGNKGIPLEVGKGRILIEGERVALLGYGSAVQNCLDAAIVLESRGLQVTVADARFCKPLDHALIRSLAKSHEVLITVEEGSIGGFGSHVVQFMALDGLLDGKLKWRPIVLPDRYIDHGSPVDQLAEAGLTPSHIAATVFNILGQTREALEVMT
- stoichiometry N [3]: 2

B2: Escherichia coli deoxyxylulose 5-phosphate synthase (EcDXS), 6xHis-tagged, full length (enzyme)
chain: MSFDIAKYPTLALVDSTQELRLLPKESLPKLCDELRRYLLDSVSRSSGHFASGLGTVELTVALHYVYNTPFDQLIWDVGHQAYPHKILTGRRDKIGTIRQKGGLHPFPWRGESEYDVLSVGHSSTSISAGIGIAVAAEKEGKNRRTVCVIGDGAITAGMAFEAMNHAGDIRPDMLVILNDNEMSISENVGALNNHLAQLLSGKLYSSLREGGKKVFSGVPPIKELLKRTEEHIKGMVVPGTLFEELGFNYIGPVDGHDVLGLITTLKNMRDLKGPQFLHIMTKKGRGYEPAEKDPITFHAVPKFDPSSGCLPKSSGGLPSYSKIFGDWLCETAAKDNKLMAITPAMREGSGMVEFSRKFPDRYFDVAIAEQHAVTFAAGLAIGGYKPIVAIYSTFLQRAYDQVLHDVAIQKLPVLFAIDRAGIVGADGQTHQGAFDLSYLRCIPEMVIMTPSDENECRQMLYTGYHYNDGPSAVRYPRGNAVGVELTPLEKLPIGKGIVKRRGEKLAILNFGTLMPEAAKVAESLNATLVDMRFVKPLDEALILEMAASHEALVTVEENAIMGGAGSGVNEVLMAHRKPVPVLNIGLPDFFIPQGTQEEMRAELGLDAAGMEAKIKAWLA
- stoichiometry N (cross-linking): 2

— publication doi:10.1101/2022.06.12.495819 (bioRxiv, 2022)
